Laboratory results: patent publication US20260232827A1 (Zymeworks, published 2026)
Positions count from the first letter of the chain named.

T1: human NaPi2b (sodium-dependent phosphate transporter 2B) (human, UniProt O95436 1-690)
T1 sequence: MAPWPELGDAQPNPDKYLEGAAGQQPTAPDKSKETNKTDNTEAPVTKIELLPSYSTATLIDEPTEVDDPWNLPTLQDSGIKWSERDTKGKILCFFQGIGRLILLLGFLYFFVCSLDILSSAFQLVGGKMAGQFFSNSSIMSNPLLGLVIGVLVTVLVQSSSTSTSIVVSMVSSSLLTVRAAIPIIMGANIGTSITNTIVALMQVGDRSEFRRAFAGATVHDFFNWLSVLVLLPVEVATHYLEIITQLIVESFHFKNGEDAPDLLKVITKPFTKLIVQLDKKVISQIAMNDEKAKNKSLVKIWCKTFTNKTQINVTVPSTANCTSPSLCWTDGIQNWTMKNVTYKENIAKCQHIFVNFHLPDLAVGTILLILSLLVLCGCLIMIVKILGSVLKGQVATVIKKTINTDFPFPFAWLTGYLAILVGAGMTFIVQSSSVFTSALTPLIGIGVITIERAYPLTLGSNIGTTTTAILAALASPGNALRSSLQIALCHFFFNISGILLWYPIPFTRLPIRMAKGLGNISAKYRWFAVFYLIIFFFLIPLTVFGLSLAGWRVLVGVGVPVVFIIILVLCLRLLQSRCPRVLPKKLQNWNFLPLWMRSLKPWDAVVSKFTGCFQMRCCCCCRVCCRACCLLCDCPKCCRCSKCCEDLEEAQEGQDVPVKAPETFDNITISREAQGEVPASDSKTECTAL

T2: human sodium-dependent phosphate transporter 2B (NaPi2b) (human, UniProt O95436 1-690)
T2 construct: UniProt ID is given as 095436 [sic]; also called hNaPi2b; Hu NaPi2b
T2 sequence: T1 sequence

T3: human sodium-dependent phosphate transporter 2B (NaPi2b) (human, UniProt O95436 1-690)
T3 sequence: T1 sequence

B1: palivizumab (anti-RSV antibody, v21995) (antibody, human IgG1, kappa, V domains shown)
VH: QVTLRESGPALVKPTQTLTLTCTFSGFSLSTSGMSVGWIRQPPGKALEWLADIWWDDKKDYNPSLKSRLTISKDTSKNQVVLKVTNMDPADTATYYCARSMITNWYFDVWGAGTTVTVSS
VL: DIQMTQSPSTLSASVGDRVTITCKSQLSVGYMHWYQQKPGKAPKLLIYDTSKLASGVPSRFSGSGSGTEFTLTISSLQPDDFATYYCFQGSGYPFTFGGGTKLEIKR
B2: v18993 (lifastuzumab)-DL2 (antibody, human IgG1, kappa)
heavy 1: GEVQLVESGGGLVQPGGSLRLSCAASGFSFSDFAMSWVRQAPGKGLEWVATIGRVAFHTYYPDSMKGRFTISRDNSKNTLYLQMNSLRAEDTAVYYCARHRGFDVGHFDFWGQGTLVTVSSASTKGPSVFPLAPSSKSTSGGTAALGCLVKDYFPEPVTVSWNSGALTSGVHTFPAVLQSSGLYSLSSVVTVPSSSLGTQTYICNVNHKPSNTKVDKKVEPKSCDKTHTCPPCPAPELLGGPSVFLFPPKPKDTLMISRTPEVTCVVVDVSHEDPEVKFNWYVDGVEVHNAKTKPREEQYNSTYRVVSVLTVLHQDWLNGKEYKCKVSNKALPAPIEKTISKAKGQPREPQVYVYPPSRDELTKNQVSLTCLVKGFYPSDIAVEWESNGQPENNYKTTPPVLDSDGSFALVSKLTVDKSRWQQGNVFSCSVMHEALHNHYTQKSLSLSPG
heavy 2: not shown
light: GDIQMTQSPSSLSASVGDRVTITCRSSETLVHSSGNTYLEWYQQKPGKAPKLLIYRVSNRFSGVPSRFSGSGSGTDFTLTISSLQPEDFATYYCFQGSFNPLTFGQGTKVEIKRTVAAPSVFIFPPSDEQLKSGTASVVCLLNNFYPREAKVQWKVDNALQSGNSQESVTEQDSKDSTYSLSSTLTLSKADYEKHKVYACEVTHQGLSSPVTKSFNRGEC
modifications: as above; maleimide functionalized auristatin drug linker (DL2); sites and DAR not stated
notes: also called lifastuzumab-DL2 ADC
B3: v29455 (H2L2) (antibody, human IgG1, kappa, V domains shown)
VH: QVQLVQSGAEVKKPGASVKVSCKASGFTFTSYNVHWVRQAPGQGLEWIAAISPGNGDLSYAQKFQGRVTMTVDTSTSTVYMELSSLRSEDTAVYYCARGRTGMGAVDYWGQGTLVTVSS
VL: DVQMTQSPSSLSASVGDRVTITCRASQDVYSYLNWYQQKPGKAVKLLIYYTSRLQSGVPSRFSGSGSGTDYTLTISSLQPEDFATYYCQQYNIFPWTFGQGTKLEIKR
notes: Humanized IgG1/kappa
B4: v29454 (H3L2) (antibody, human IgG1, kappa, V domains shown)
VH: B3 VH with V20M, V68A, M70L, V79A
VL: B3 VL
notes: Humanized IgG1/kappa
B5: v29460 (H1L1) (antibody, human IgG1, kappa, V domains shown)
VH: B3 VH with I48M, A49G, V72R
VL: B3 VL with V2I, V44P, Y71F
notes: Humanized IgG1/kappa
B6: v29453 (H4L2) (antibody, human IgG1, kappa, V domains shown)
VH: B3 VH with V20M, V68A, M70L, T74R, V79A
VL: B3 VL
notes: Humanized IgG1/kappa; clones CL_#21506 and CL_#21508
B7: v29459 (H2L1) (antibody, human IgG1, kappa, V domains shown)
VH: B3 VH
VL: B3 VL with V2I, V44P, Y71F
notes: Humanized IgG1/kappa
B8: v29458 (H3L1) (antibody, human IgG1, kappa, V domains shown)
VH: B3 VH with V20M, V68A, M70L, V79A
VL: B3 VL with V2I, V44P, Y71F
notes: Humanized IgG1/kappa
B9: v29449 (H4L3) (antibody, human IgG1, kappa, V domains shown)
VH: B3 VH with V20M, V68A, M70L, T74R, V79A
VL: B3 VL with F83I
notes: Humanized IgG1/kappa
B10: v29451 (H2L3) (antibody, human IgG1, kappa, V domains shown)
VH: B3 VH
VL: B3 VL with F83I
notes: Humanized IgG1/kappa
B11: v29450 (H3L3) (antibody, human IgG1, kappa, V domains shown)
VH: B3 VH with V20M, V68A, M70L, V79A
VL: B3 VL with F83I
notes: Humanized IgG1/kappa
B12: v29457 (H4L1) (antibody, human IgG1, kappa, V domains shown)
VH: B3 VH with V20M, V68A, M70L, T74R, V79A
VL: B3 VL with V2I, V44P, Y71F
notes: Humanized IgG1/kappa; clones CL_#21506 and CL_#21507
B13: v29456-MC-GGFG-Compound 141 DAR 3.4 (antibody, human IgG1, kappa)
heavy: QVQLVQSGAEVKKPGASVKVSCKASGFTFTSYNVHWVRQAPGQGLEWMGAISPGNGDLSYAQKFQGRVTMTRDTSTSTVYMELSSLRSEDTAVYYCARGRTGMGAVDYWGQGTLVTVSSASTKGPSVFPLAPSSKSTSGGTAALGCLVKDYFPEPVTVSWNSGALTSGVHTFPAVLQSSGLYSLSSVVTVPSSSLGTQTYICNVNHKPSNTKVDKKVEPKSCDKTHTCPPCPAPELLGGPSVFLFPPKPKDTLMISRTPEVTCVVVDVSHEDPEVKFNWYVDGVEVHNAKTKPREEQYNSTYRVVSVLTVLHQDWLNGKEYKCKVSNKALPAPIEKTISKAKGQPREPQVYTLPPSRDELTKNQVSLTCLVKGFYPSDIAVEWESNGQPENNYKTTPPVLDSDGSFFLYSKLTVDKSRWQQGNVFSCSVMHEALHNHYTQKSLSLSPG
light: DVQMTQSPSSLSASVGDRVTITCRASQDVYSYLNWYQQKPGKAVKLLIYYTSRLQSGVPSRFSGSGSGTDYTLTISSLQPEDFATYYCQQYNIFPWTFGQGTKLEIKRTVAAPSVFIFPPSDEQLKSGTASVVCLLNNFYPREAKVQWKVDNALQSGNSQESVTEQDSKDSTYSLSSTLTLSKADYEKHKVYACEVTHQGLSSPVTKSFNRGEC
modifications: drug-linker MC-GGFG-Compound 141 on cysteine thiols after TCEP reduction, positions not given; DAR 3.4 for the whole antibody
B14: v29456-MC-GGFG-AM-Compound 139 DAR 3.4 (antibody, human IgG1, kappa)
heavy: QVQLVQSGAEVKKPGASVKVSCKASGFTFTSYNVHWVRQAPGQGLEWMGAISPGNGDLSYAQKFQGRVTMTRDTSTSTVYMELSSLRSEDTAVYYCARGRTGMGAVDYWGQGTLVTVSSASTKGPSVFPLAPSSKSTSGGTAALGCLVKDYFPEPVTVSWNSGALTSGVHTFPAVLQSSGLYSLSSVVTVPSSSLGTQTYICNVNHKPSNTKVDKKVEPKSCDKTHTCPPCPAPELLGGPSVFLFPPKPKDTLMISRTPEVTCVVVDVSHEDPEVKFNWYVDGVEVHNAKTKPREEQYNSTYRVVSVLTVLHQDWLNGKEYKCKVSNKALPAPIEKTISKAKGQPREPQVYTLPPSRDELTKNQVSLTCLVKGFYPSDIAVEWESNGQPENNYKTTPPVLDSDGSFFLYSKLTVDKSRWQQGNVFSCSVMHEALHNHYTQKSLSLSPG
light: B13 light
modifications: drug-linker MC-GGFG-AM-Compound 139 on cysteine thiols after TCEP reduction, positions not given; DAR 3.4 for the whole antibody
B15: v29456-MC-GGFG-Compound 141 DAR 8 (antibody, human IgG1, kappa)
heavy: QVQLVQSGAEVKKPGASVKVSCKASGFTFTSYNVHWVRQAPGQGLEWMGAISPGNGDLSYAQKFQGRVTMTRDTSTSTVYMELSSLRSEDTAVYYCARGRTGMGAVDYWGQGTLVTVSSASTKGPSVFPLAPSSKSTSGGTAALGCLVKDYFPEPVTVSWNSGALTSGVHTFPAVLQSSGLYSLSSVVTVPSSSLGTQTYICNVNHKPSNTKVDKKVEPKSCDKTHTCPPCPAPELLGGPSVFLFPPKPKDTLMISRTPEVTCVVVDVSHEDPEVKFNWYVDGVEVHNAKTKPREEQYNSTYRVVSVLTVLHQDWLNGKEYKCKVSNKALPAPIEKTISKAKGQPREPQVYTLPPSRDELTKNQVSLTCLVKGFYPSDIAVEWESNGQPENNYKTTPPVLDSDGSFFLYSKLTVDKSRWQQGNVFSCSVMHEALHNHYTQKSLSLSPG
light: B13 light
modifications: drug-linker MC-GGFG-Compound 141 on cysteine thiols after TCEP reduction, positions not given; DAR 8.0 for the whole antibody
B16: v29456-MT-GGFG-AM-Compound 141 DAR 8 (antibody, human IgG1, kappa)
heavy: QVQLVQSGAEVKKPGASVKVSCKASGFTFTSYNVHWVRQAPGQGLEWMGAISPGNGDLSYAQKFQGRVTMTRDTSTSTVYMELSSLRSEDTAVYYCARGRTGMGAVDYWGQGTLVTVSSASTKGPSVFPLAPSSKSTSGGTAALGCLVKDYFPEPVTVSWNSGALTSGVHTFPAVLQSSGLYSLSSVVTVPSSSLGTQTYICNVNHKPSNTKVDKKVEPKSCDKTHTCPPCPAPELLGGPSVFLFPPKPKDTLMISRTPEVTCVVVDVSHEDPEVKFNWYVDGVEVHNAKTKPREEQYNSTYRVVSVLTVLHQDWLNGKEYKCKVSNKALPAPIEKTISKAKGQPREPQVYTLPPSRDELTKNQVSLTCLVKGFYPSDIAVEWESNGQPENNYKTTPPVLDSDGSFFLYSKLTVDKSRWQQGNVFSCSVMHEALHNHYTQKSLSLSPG
light: B13 light
modifications: drug-linker MT-GGFG-AM-Compound 141 on cysteine thiols after TCEP reduction, positions not given; DAR 8 for the whole antibody
B17: v29456-MT-GGFG-Compound 140 DAR 8 (antibody, human IgG1, kappa)
heavy: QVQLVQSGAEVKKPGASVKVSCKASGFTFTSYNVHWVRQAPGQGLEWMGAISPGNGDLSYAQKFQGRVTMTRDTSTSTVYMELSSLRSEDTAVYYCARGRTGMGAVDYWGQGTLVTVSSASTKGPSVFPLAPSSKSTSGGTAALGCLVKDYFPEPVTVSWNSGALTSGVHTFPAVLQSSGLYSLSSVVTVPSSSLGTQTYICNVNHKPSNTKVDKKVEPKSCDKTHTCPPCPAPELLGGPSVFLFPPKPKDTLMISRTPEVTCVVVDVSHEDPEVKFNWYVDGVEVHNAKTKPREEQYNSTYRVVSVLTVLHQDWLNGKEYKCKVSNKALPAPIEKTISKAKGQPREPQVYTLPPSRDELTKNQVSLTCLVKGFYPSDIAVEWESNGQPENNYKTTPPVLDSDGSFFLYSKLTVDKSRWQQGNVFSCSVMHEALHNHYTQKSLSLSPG
light: B13 light
modifications: drug-linker MT-GGFG-Compound 140 on cysteine thiols after TCEP reduction, positions not given; DAR 8 for the whole antibody
B18: v29456-MT-GGFG-AM-Compound 139 DAR 8 (antibody, human IgG1, kappa)
heavy: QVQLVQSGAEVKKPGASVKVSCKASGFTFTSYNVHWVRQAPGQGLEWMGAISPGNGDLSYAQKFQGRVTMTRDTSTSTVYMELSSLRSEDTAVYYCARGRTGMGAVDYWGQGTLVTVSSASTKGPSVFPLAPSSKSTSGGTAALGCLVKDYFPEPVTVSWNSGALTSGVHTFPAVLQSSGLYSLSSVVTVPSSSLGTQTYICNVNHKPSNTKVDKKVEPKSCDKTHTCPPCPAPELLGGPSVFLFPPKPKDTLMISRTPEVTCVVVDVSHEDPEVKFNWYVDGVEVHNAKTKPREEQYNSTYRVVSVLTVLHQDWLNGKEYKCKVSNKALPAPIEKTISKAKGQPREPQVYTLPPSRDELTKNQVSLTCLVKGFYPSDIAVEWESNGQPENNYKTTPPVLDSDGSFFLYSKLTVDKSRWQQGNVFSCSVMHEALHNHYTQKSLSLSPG
light: B13 light
modifications: drug-linker MT-GGFG-AM-Compound 139 on cysteine thiols after TCEP reduction, positions not given; DAR 8 for the whole antibody
B19: v29456-MC-GGFG-AM-DXd1 DAR 8 (antibody, human IgG1, kappa)
heavy: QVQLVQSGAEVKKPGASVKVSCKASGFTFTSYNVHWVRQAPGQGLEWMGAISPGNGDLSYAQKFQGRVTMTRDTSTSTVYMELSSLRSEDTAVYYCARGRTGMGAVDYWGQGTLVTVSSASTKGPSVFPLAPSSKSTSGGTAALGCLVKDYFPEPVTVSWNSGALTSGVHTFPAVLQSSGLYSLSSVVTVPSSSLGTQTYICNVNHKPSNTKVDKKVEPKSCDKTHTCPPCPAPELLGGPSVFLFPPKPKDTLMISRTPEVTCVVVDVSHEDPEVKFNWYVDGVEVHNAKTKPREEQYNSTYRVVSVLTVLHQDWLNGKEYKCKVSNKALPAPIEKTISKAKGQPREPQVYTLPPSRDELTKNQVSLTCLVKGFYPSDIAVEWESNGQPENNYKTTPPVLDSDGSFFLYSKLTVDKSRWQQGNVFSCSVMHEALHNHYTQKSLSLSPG
light: B13 light
modifications: drug-linker MC-GGFG-AM-DXd1 on cysteine thiols after TCEP reduction, positions not given; DAR 8 for the whole antibody
B20: v29456-MT-GGFG-AM-Compound 136 DAR 8 (antibody, human IgG1, kappa)
heavy: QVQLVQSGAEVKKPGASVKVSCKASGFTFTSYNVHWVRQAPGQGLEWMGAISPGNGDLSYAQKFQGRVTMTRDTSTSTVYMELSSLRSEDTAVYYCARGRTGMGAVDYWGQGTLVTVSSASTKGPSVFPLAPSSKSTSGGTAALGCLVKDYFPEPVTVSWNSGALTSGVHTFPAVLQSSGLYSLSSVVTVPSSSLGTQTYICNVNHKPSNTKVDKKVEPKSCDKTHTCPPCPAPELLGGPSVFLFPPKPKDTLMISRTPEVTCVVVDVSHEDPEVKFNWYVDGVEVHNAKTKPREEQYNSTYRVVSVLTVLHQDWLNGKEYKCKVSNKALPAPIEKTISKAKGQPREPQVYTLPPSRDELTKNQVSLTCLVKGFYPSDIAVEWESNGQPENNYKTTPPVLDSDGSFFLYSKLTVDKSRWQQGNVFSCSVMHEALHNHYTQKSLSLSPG
light: B13 light
modifications: drug-linker MT-GGFG-AM-Compound 136 on cysteine thiols after TCEP reduction, positions not given; DAR 8 for the whole antibody
B21: v29456-MT-GGFG-AM-Compound 129 DAR 8 (antibody, human IgG1, kappa)
heavy: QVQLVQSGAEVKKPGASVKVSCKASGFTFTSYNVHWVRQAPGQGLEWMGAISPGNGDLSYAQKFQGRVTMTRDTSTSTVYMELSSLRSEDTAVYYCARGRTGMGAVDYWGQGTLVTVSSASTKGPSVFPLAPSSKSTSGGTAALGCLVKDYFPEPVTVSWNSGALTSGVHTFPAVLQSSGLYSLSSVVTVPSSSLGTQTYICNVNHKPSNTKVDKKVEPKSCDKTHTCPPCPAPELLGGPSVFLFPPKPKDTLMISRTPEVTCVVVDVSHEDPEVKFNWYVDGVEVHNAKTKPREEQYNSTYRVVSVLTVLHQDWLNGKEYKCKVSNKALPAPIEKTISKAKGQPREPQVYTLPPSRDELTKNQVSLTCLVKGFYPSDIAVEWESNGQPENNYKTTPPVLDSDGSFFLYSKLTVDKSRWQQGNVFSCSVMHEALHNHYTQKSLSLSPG
light: B13 light
modifications: drug-linker MT-GGFG-AM-Compound 129 on cysteine thiols after TCEP reduction, positions not given; DAR 8 for the whole antibody
B22: v29456-MT-GGFG-Compound 148 DAR 8 (antibody, human IgG1, kappa)
heavy: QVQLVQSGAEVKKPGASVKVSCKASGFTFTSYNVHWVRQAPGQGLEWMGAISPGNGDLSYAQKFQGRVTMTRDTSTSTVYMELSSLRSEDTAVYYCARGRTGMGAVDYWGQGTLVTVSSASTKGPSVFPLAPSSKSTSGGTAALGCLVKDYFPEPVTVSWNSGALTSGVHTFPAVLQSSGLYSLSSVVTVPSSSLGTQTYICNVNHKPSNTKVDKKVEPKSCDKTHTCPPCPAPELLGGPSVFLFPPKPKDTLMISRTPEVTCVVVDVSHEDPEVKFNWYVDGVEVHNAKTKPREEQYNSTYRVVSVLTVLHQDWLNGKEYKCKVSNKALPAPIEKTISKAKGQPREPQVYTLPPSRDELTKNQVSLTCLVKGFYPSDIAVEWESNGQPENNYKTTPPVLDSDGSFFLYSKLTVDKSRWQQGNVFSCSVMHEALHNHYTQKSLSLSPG
light: B13 light
modifications: drug-linker MT-GGFG-Compound 148 on cysteine thiols after TCEP reduction, positions not given; DAR 8 for the whole antibody

Each binder was assayed against T1, human NaPi2b (sodium-dependent …) (assay: cell-based or functional assay).

Row | Binder | Internalized Fluorescence Fold-Over Untreated, H441, 4 h, 2.5 nM | Internalized Fluorescence Fold-Over Untreated, H441, 24 h, 2.5 nM | Internalized Fluorescence Fold-Over Untreated, HCC-78, 4 h, 2.5 nM | Internalized Fluorescence Fold-Over Untreated, HCC-78, 24 h, 2.5 nM | Internalized Fluorescence Fold-Over Untreated, IGROV-1, 4 h, 2.5 nM | Internalized Fluorescence Fold-Over Untreated, IGROV-1, 24 h, 2.5 nM
1 | B1 | 1 fold | 1.1 fold | 1 fold | 1.1 fold | 0.9 fold | 1 fold

These binders were tested against T2, human sodium-dependent phosphate … (assay: flow cytometry, IGROV-1 cells (endogenous NaPi2b)).
Parameters: unit not given here

Row | Binder | Bmax
2 | B2 | 39800
3 | B3 | 41900
4 | B4 | 42300
5 | B5 | 40100
6 | B6 | 44500
7 | B7 | 40900
8 | B8 | 40800
9 | B9 | 44500
10 | B10 | 46200
11 | B11 | 43800
12 | B12 | 44500

The binders below were run against T3, human sodium-dependent phosphate … (assay: cell-based or functional assay).

Row | Binder | EC50, in vitro cytotoxicity, IGROV-1 spheroids | EC50, in vitro cytotoxicity, TOV-21G:HDFa (1:1) spheroids
13 | B13 | 1310 pM | 990 pM
14 | B14 | 880 pM | 760 pM
15 | B15 | 440 pM | 900 pM

Target: T3, human sodium-dependent phosphate …
Test: cell-based or functional assay
Remark: another data set of the same source

Row | Binder | EC50, in vitro cytotoxicity, 2D monolayer, IGROV-1 | EC50, in vitro cytotoxicity, 2D monolayer, TOV-21G
16 | B13 | 16400 pM | 
17 | B14 | 5460 pM | 
18 | B15 | 3010 pM | 930 pM

Target: T3, human sodium-dependent phosphate …
Test: cell-based or functional assay
Remark: another data set of the same source

Row | Binder | EC50, in vitro cytotoxicity, HCC-78 spheroids | EC50, in vitro cytotoxicity, IGROV-1 spheroids
19 | B16 | 330 pM | 210 pM
20 | B17 | 190 pM | 250 pM
21 | B18 | 820 pM | 370 pM
22 | B19 | 600 pM | 270 pM

What follows are binders tested against T2, human sodium-dependent phosphate … (assay: flow cytometry, IGROV-1 cells (endogenous NaPi2b); apparent Kd).
Procedure: Briefly, cells were seeded at 50,000 cells/well in conical-bottom 96-well plates and treated with test antibody for 24 hours at 4° C. to prevent internalization. […] Following incubation and washing, fluorescence was detected by flow cytometry on a BD LSRFortessa™ Cell Analyzer (BD Biosciences, Franklin Lake, NJ) with 1,000 minimum events collected per well.

Row | Binder | Kd
23 | B2 | 3000 pM
24 | B3 | 1180 pM
25 | B4 | 920 pM
26 | B5 | 1670 pM
27 | B6 | 820 pM
28 | B7 | 1610 pM
29 | B8 | 1390 pM
30 | B9 | 790 pM
31 | B10 | 1490 pM
32 | B11 | 960 pM
33 | B12 | 1730 pM

Target: T3, human sodium-dependent phosphate …
Test: cell-based or functional assay
Remark: another data set of the same source

Row | Binder | EC50, in vitro cytotoxicity, 2D monolayer, HCC-78 | EC50, in vitro cytotoxicity, 2D monolayer, IGROV-1
34 | B20 | 430 pM | 4480 pM
35 | B16 | 260 pM | 1560 pM
36 | B17 | 600 pM | 
37 | B21 | 420 pM | 1110 pM
38 | B22 | 1980 pM | 
39 | B18 | 650 pM | 1710 pM
40 | B19 | 550 pM | 450 pM
